In EP3636665A1 (dated 2020):

Tests used:
[1] = target: T1, MAGE-A1 and a second family member (printed 'MRGE-A1/R4') peptide on HLA-DPB1*04:01 (human); test: cytokine release
T1 peptide: QDLVQEKYLEY

[2] = target: T2, MAGE-A3 peptide on HLA-DPB1*04:01 (human); test: cytokine release
T2 peptide: KKLLTQHFVQENY

binding result [1]: no recognition | binding result [2]: no recognition
B1: 6F9 TCR (TCR, V domains shown)
Valpha: AQTVTQSQPEMSVQEAETVTLSCTYDTSESDYYLFWYKQPPSRQMILVIRQEAYKQQNATENRFSVNFQKAAKSFSLKISDSQLGDAAMYFCALRSSGTYKYIFGTGTRLKVLA
Vbeta: GAGVSQSPSNKVTEKGKDVELRCDPISGHTALYWYRQSLGQGLEFLIYFQGNSAPDKSGLPSDRFSAERTGGSVSTLTIQRTQQEDSAVYLCASIRTGPFFSGNTIYFGEGSWLTVV
